B1: 97 (protein)
chain: LDNGLARTPTMGWLHWERFMCNLDCQEEPDSCISEKLFMEMAELMVSEGWKDAGYEYLCIDDCWMAPQRDSEGRLQADPQRFPHGIRQLANYVHSKGLKLGIYADVGNKTCAGFPGSFGYYDIDAQTFADWGVDLLKFDGCYCDSLENLADGYKHMSMALNRTGRSIVYSCEWPLYMWPFQKPNYTEIRQYCNHWRNFADIDDSWKSIKSILDWTSFNQERIVDVAGPGGWNDPDMLVIGNFGLSWNQQVTQMALWAIMAAPLFMSNDLRHISPQAKALLQDKDVIAINQDPLGKQGYQLRQGDNFEVWERPLSGLAWAVAMINRQEIGGPRSYTIAVASLGKGVACNPACFITQLLPVKRKLGFYEWTSRLRSHINPTGTVLLQLENTMQMSKDLLL
modifications: Synthetic Polypeptide sequence of Variant No. 97 of mature Human GLA
B2: 99 (protein)
chain: B1 chain with L23M, M158L
modifications: Synthetic Polypeptide sequence of Variant No. 99 of mature Human GLA
B3: 111 (protein)
chain: B1 chain with M158L, L397H
modifications: Synthetic Polypeptide sequence of Variant No. 111 of mature Human GLA
B4: 108 (protein)
chain: B1 chain with M158L, K394T
modifications: Synthetic Polypeptide sequence of Variant No. 108 of mature Human GLA
B5: 104 (protein)
chain: B1 chain with M158L, L386V
modifications: Synthetic Polypeptide sequence of Variant No. 104 of mature Human GLA
B6: 103 (protein)
chain: B1 chain with M158L, L384F
modifications: Synthetic Polypeptide sequence of Variant No. 103 of mature Human GLA
B7: 106 (protein)
chain: B1 chain with M158L, K394R
modifications: Synthetic Polypeptide sequence of Variant No. 106 of mature Human GLA
B8: 98 (protein)
chain: B1 chain with M158R
modifications: Synthetic Polypeptide sequence of Variant No. 98 of mature Human GLA
B9: 105 (protein)
chain: B1 chain with M158L, K394A
modifications: Synthetic Polypeptide sequence of Variant No. 105 of mature Human GLA
B10: 33 (protein)
chain: B1 chain with M158L, A199H, E367S
modifications: Synthetic Polypeptide sequence of Variant No. 33 of mature Human GLA
B11: 107 (protein)
chain: B1 chain with M158L, K394S
modifications: Synthetic Polypeptide sequence of Variant No. 107 of mature Human GLA
B12: 100 (protein)
chain: B1 chain with L23T, M158L
modifications: Synthetic Polypeptide sequence of Variant No. 100 of mature Human GLA
B13: 110 (protein)
chain: B1 chain with M158L, L397D
modifications: Synthetic Polypeptide sequence of Variant No. 110 of mature Human GLA
B14: 102 (protein)
chain: B1 chain with M158L, L316E
modifications: Synthetic Polypeptide sequence of Variant No. 102 of mature Human GLA
B15: 101 (protein)
chain: B1 chain with M158L, L316D
modifications: Synthetic Polypeptide sequence of Variant No. 101 of mature Human GLA

Where a chain is given by its changes, count along the chain named.

The nature of one data set: HTP-analysis of supernatants pretreated with base (MUGal hydrolysis). It counts as biochemical. As to conditions: challenge at pH 7.1; activity of the variant/activity of WT GLA (SEQ ID NO: 5); yeast supernatant. An outline of the steps:
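Fluorescence of released 4-MU (Ex 355 nm, Em 448 nm) after carbonate quench reports MUGal hydrolysis by GLA variants secreted from INVSc1 yeast. Before the acidic (pH 4.3-4.8) 30-180 min reaction at 37° C, supernatants had been pre-incubated at pH 7.0-9.7 for 1-18 h at 37° C.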
As for B1, the “Relative Activity of GLA Variants After Challenge at pH 7.1” value (from here on “Relative Activity … at pH 7.1”) is recorded as “+ (+ = 0.5 to 1.5 relative activity over WT GLA (SEQ ID NO: 5))”.

Regarding B2, the “Relative Activity … at pH 7.1” value is on record as “+ (+ = 0.5 to 1.5 relative activity over WT GLA (SEQ ID NO: 5))”.

Consider B3, for which the “Relative Activity … at pH 7.1” value was “++ (++ = >1.5 to 2.5 relative activity over WT GLA (SEQ ID NO: 5))”.

Consider B4, for which the “Relative Activity … at pH 7.1” value is listed as “+++ (+++ = >2.5 relative activity over WT GLA (SEQ ID NO: 5))”.

Turning to B5, the “Relative Activity … at pH 7.1” value was “++ (++ = >1.5 to 2.5 relative activity over WT GLA (SEQ ID NO: 5))”.

Turning to B6, the “Relative Activity … at pH 7.1” value is given as “++ (++ = >1.5 to 2.5 relative activity over WT GLA (SEQ ID NO: 5))”.

As for B7, the “Relative Activity … at pH 7.1” value is “+++ (+++ = >2.5 relative activity over WT GLA (SEQ ID NO: 5))”.

In the case of B8, the “Relative Activity … at pH 7.1” value was “+ (+ = 0.5 to 1.5 relative activity over WT GLA (SEQ ID NO: 5))”.

Take B9: the “Relative Activity … at pH 7.1” value is given as “++ (++ = >1.5 to 2.5 relative activity over WT GLA (SEQ ID NO: 5))”.

As for B10, the “Relative Activity … at pH 7.1” value is listed as “+ (+ = 0.5 to 1.5 relative activity over WT GLA (SEQ ID NO: 5))”.

B11: the “Relative Activity … at pH 7.1” value is “+++ (+++ = >2.5 relative activity over WT GLA (SEQ ID NO: 5))”.

For B12, the “Relative Activity … at pH 7.1” value was “+ (+ = 0.5 to 1.5 relative activity over WT GLA (SEQ ID NO: 5))”.

B13: the “Relative Activity … at pH 7.1” value is “+++ (+++ = >2.5 relative activity over WT GLA (SEQ ID NO: 5))”.

B14: the “Relative Activity … at pH 7.1” value was “+++ (+++ = >2.5 relative activity over WT GLA (SEQ ID NO: 5))”.

Turning to B15, the “Relative Activity … at pH 7.1” value is “+++ (+++ = >2.5 relative activity over WT GLA (SEQ ID NO: 5))”.

The nature of a further data set: HTP-analysis of yeast culture supernatants, no challenge (MUGal hydrolysis). The data set is classed as biochemical. As to conditions: activity of the variant/activity of WT GLA (SEQ ID NO: 5), yeast supernatant. An outline of the steps: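 GLA variants expressed in yeast INVSc1, secreted into SD-Ura broth over 66-84 h at 30° C; clarified supernatants tested without challenge. Supernatant mixed with McIlvaine buffer pH 4.8 and 2 mM MUGal (citrate/KCl, pH 4.6), 37° C for 30-180 min, carbonate-quenched, fluorescence Ex 355/Em 448 nm.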
As to B1, the “Relative Activity of GLA Variants After No Challenge (NC)” value was “+ (+ = 0.5 to 1.5 relative activity over WT GLA (SEQ ID NO: 5))”.

In the case of B2, the “Relative Activity of GLA Variants After No Challenge (NC)” value is given as “+ (+ = 0.5 to 1.5 relative activity over WT GLA (SEQ ID NO: 5))”.

As for B3, the “Relative Activity of GLA Variants After No Challenge (NC)” value is given as “++ (++ = >1.5 to 2.5 relative activity over WT GLA (SEQ ID NO: 5))”.

For B4, the “Relative Activity of GLA Variants After No Challenge (NC)” value is listed as “+++ (+++ = >2.5 relative activity over WT GLA (SEQ ID NO: 5))”.

As to B5, the “Relative Activity of GLA Variants After No Challenge (NC)” value is given as “++ (++ = >1.5 to 2.5 relative activity over WT GLA (SEQ ID NO: 5))”.

As to B6, the “Relative Activity of GLA Variants After No Challenge (NC)” value is given as “++ (++ = >1.5 to 2.5 relative activity over WT GLA (SEQ ID NO: 5))”.

As for B7, the “Relative Activity of GLA Variants After No Challenge (NC)” value was “++ (++ = >1.5 to 2.5 relative activity over WT GLA (SEQ ID NO: 5))”.

Take B8: the “Relative Activity of GLA Variants After No Challenge (NC)” value is given as “+ (+ = 0.5 to 1.5 relative activity over WT GLA (SEQ ID NO: 5))”.

With B9, the “Relative Activity of GLA Variants After No Challenge (NC)” value is listed as “+++ (+++ = >2.5 relative activity over WT GLA (SEQ ID NO: 5))”.

For the molecule B10, the “Relative Activity of GLA Variants After No Challenge (NC)” value was “+ (+ = 0.5 to 1.5 relative activity over WT GLA (SEQ ID NO: 5))”.

For the molecule B11, the “Relative Activity of GLA Variants After No Challenge (NC)” value was “+++ (+++ = >2.5 relative activity over WT GLA (SEQ ID NO: 5))”.

In the case of B12, the “Relative Activity of GLA Variants After No Challenge (NC)” value is reported as “+ (+ = 0.5 to 1.5 relative activity over WT GLA (SEQ ID NO: 5))”.

On to B13, for which the “Relative Activity of GLA Variants After No Challenge (NC)” value is listed as “+++ (+++ = >2.5 relative activity over WT GLA (SEQ ID NO: 5))”.

For B14, the “Relative Activity of GLA Variants After No Challenge (NC)” value is “+++ (+++ = >2.5 relative activity over WT GLA (SEQ ID NO: 5))”.

Regarding B15, the “Relative Activity of GLA Variants After No Challenge (NC)” value is listed as “+++ (+++ = >2.5 relative activity over WT GLA (SEQ ID NO: 5))”.

The next data set is described as follows: HTP-analysis of supernatants pretreated with acid (MUGal hydrolysis). As to conditions: challenge at pH 4.2; activity of the variant/activity of WT GLA (SEQ ID NO: 5); yeast supernatant. The data set is classed as biochemical. An outline of the steps: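 Supernatants from INVSc1 yeast secreting GLA variants were challenged at 37° C. for 1-3 h in McIlvaine buffer at pH 3.3-4.3. Residual activity was then measured on 4 mM MUGal substrate stock at pH 4.8 with citrate buffer pH 4.3, over 30-180 min at 37° C. Reactions were quenched with sodium carbonate and read by fluorescence (Ex 355/Em 448 nm).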
For B1, the “Relative Activity of GLA Variants After Challenge at pH 4.2” value (from here on “Relative Activity … at pH 4.2”) is recorded as “+ (+ = 0.5 to 1.5 relative activity over WT GLA (SEQ ID NO: 5))”.

In the case of B2, the “Relative Activity … at pH 4.2” value is on record as “+ (+ = 0.5 to 1.5 relative activity over WT GLA (SEQ ID NO: 5))”.

Turning to B3, the “Relative Activity … at pH 4.2” value is given as “++ (++ = >1.5 to 2.5 relative activity over WT GLA (SEQ ID NO: 5))”.

Consider B4, for which the “Relative Activity … at pH 4.2” value is reported as “+++ (+++ = >2.5 relative activity over WT GLA (SEQ ID NO: 5))”.

As for B5, the “Relative Activity … at pH 4.2” value is “++ (++ = >1.5 to 2.5 relative activity over WT GLA (SEQ ID NO: 5))”.

For B6, the “Relative Activity … at pH 4.2” value is listed as “++ (++ = >1.5 to 2.5 relative activity over WT GLA (SEQ ID NO: 5))”.

On to B7, for which the “Relative Activity … at pH 4.2” value was “++ (++ = >1.5 to 2.5 relative activity over WT GLA (SEQ ID NO: 5))”.

B8: the “Relative Activity … at pH 4.2” value is “+ (+ = 0.5 to 1.5 relative activity over WT GLA (SEQ ID NO: 5))”.

Consider B9, for which the “Relative Activity … at pH 4.2” value is given as “++ (++ = >1.5 to 2.5 relative activity over WT GLA (SEQ ID NO: 5))”.

With B10, the “Relative Activity … at pH 4.2” value is listed as “+ (+ = 0.5 to 1.5 relative activity over WT GLA (SEQ ID NO: 5))”.

Take B11: the “Relative Activity … at pH 4.2” value is listed as “+++ (+++ = >2.5 relative activity over WT GLA (SEQ ID NO: 5))”.

On to B12, for which the “Relative Activity … at pH 4.2” value is recorded as “+ (+ = 0.5 to 1.5 relative activity over WT GLA (SEQ ID NO: 5))”.

For the molecule B13, the “Relative Activity … at pH 4.2” value is listed as “++ (++ = >1.5 to 2.5 relative activity over WT GLA (SEQ ID NO: 5))”.

In the case of B14, the “Relative Activity … at pH 4.2” value is recorded as “+++ (+++ = >2.5 relative activity over WT GLA (SEQ ID NO: 5))”.

As to B15, the “Relative Activity … at pH 4.2” value was “+++ (+++ = >2.5 relative activity over WT GLA (SEQ ID NO: 5))”.

The values are drawn from patent US11278600B2, “Human alpha-galactosidase variants” (Codexis, Inc., priority 2014, dated 2022).
